Experimental data reported in US11591580B2, “K85 mutation-containing plant EPSPS mutant, and encoding gene and application thereof” (GEVOTO LLC, priority 2017, dated 2023).

B1: G1: single-mutation soybean EPSPS mutant, SEQ ID NO: 20, only mutation K98(85)T (protein)
chain: MAAAEKPSTAPEIVLEPIKDISGTITLPGSKSLSNRILLLAALSEGTTVVDNLLYSEDIHYMLGALRTLGLRVEDDQTTKQAIVEGCGGLFPTIKESTDEINLFLGNAGTAMRPLTAAVVAAGGNASYVLDGVPRMRERPIGDLVAGLKQLGADVDCFLGTNCPPVRVNGKGGLPGGKVKLSGSVSSQYLTALLMAAPLALGDVEIEIVDKLISVPYVEMTLKLMERFGVSVEHSGDWDKFLVHGGQKYKSPGNAFVEGDASSASYFLAGAAVTGGTITVNGCGTSSLQGDVKFAEVLEKMGAKVTWSENSVTVTGPPQDSSGQKVLQGIDVNMNKMPDVAMTLAVVALFANGQTTIRDVASWRVKETERMIAICTELRKLGATVEEGPDYCVITPPEKLNVTAIDTYDDHRMAMAFSLAACGDVPVTIKDPGCTRKTFPDYFEVLERFTRH
modifications: Glycine max EPSPS mutant with mutation K98(85)T
B2: G3: soybean EPSPS mutant, SEQ ID NO: 24, two mutations K98(85)T and P114(101)S (protein)
chain: MAAAEKPSTAPEIVLEPIKDISGTITLPGSKSLSNRILLLAALSEGTTVVDNLLYSEDIHYMLGALRTLGLRVEDDQTTKQAIVEGCGGLFPTIKESTDEINLFLGNAGTAMRSLTAAVVAAGGNASYVLDGVPRMRERPIGDLVAGLKQLGADVDCFLGTNCPPVRVNGKGGLPGGKVKLSGSVSSQYLTALLMAAPLALGDVEIEIVDKLISVPYVEMTLKLMERFGVSVEHSGDWDKFLVHGGQKYKSPGNAFVEGDASSASYFLAGAAVTGGTITVNGCGTSSLQGDVKFAEVLEKMGAKVTWSENSVTVTGPPQDSSGQKVLQGIDVNMNKMPDVAMTLAVVALFANGQTTIRDVASWRVKETERMIAICTELRKLGATVEEGPDYCVITPPEKLNVTAIDTYDDHRMAMAFSLAACGDVPVTIKDPGCTRKTFPDYFEVLERFTRH
modifications: Glycine max EPSPS mutant with mutations K98(85)T and P114(101)S
B3: G2: single-mutation soybean EPSPS mutant, SEQ ID NO: 22, only mutation P114(101)S but no K98(85)T (protein)
chain: MAAAEKPSTAPEIVLEPIKDISGTITLPGSKSLSNRILLLAALSEGTTVVDNLLYSEDIHYMLGALRTLGLRVEDDQTTKQAIVEGCGGLFPTIKESKDEINLFLGNAGTAMRSLTAAVVAAGGNASYVLDGVPRMRERPIGDLVAGLKQLGADVDCFLGTNCPPVRVNGKGGLPGGKVKLSGSVSSQYLTALLMAAPLALGDVEIEIVDKLISVPYVEMTLKLMERFGVSVEHSGDWDKFLVHGGQKYKSPGNAFVEGDASSASYFLAGAAVTGGTITVNGCGTSSLQGDVKFAEVLEKMGAKVTWSENSVTVTGPPQDSSGQKVLQGIDVNMNKMPDVAMTLAVVALFANGQTTIRDVASWRVKETERMIAICTELRKLGATVEEGPDYCVITPPEKLNVTAIDTYDDHRMAMAFSLAACGDVPVTIKDPGCTRKTFPDYFEVLERFTRH
modifications: Glycine max EPSPS mutant with mutation P114(101)S

Legend:
[1] = system: double knockout E. coli; test: growth of E. coli transformed by genes encoding soybean EPSPS (wild type and mutants) in culture media containing different glyphosate concentrations (Example 7, FIG. 3); assay type: cell-based
[2] = system: transgenic rice seedlings; test: glyphosate resistance of the EPSPS mutant in transgenic rice plants sprayed with glyphosate (Example 8, Table 1); assay type: in vivo, rice (Nipponbare); details: for glyphosate resistance / survival of transformed rice seedlings (in words): 2× glyphosate dosage; for glyphosate resistance of transformed rice seedlings (in words): glyphosate sprayed at the 1× dosage
Description: A method for detecting the glyphosate resistance of the G1 soybean EPSPS mutant (SEQ ID NO: 20), G2 soybean EPSPS mutant (SEQ ID NO: 22) and G3 soybean EPSPS mutant (SEQ ID NO: 24) provided in Example 7, the R1 rice EPSPS mutant (SEQ ID NO: 4) provided in Example 5, and the Z1 maize EPSPS mutant (SEQ ID NO: 12) provided in Example 6 in the transgenic rice is as follows:
The plasmids (containing the EPSPS mutant gene) of the monoclonal resistant bacteria of pADV5-EPSPS in Examples 1-7 were extracted by a conventional method, followed by double enzyme digestion by Pac1 and BstEII, the small fragments were collected, and then the small fragments were ligated, using T4 DNA ligase, to the pGVP1 vectors that had undergone the same double enzyme digestion, to obtain a pGVP1-EPSPS vector having a structure as shown in FIG. 8.
In the present example, the glyphosate resistance of the EPSPS mutant in transgenic rice plants were verified. An experiment method is as follows:
The transgenic rice seedlings transplanted were uniformly arranged in a same experiment area (preventing leaves from overlapping). The areas occupied by the experiment groups and the control group were calculated, and according to the areas, glyphosate was sprayed at a 1× dosage of 1060 g/hectare (0.106 g/m^2). 2× dosage was 2120 g/hectare, 5× dosage was 5300 g/hectare, and 20× dosage was 21200 g/hectare.
Commercially available Roundup® 41% ammonium glyphosate was used. Roundup® ammonium glyphosate with corresponding volumes was taken according to the above sprayed concentrations, then diluted with 20 times of volume of water, and then uniformly sprayed on the plants in the experiment groups and the control group. After leaf surfaces were dry, the plants were moved into greenhouse or outdoor to cultivate.
After the glyphosate was sprayed at the 1× dosage, growth states of the plants in each group were observed and recorded on a 10th day, and glyphosate was sprayed to the survived plants at the 2× dosage. The growth states of the plants in each group were observed and recorded 10 days later, and glyphosate was sprayed to the survived plants at the 5× dosage. The growth states of the plants in each group were observed and recorded 10 days later, and glyphosate was sprayed to the survived plants at the 20× dosage. The growth states of the plants in each group were observed and recorded 10 days later, and results are shown in Table 1, wherein corresponding numbers of plants denoted by −, +, ++ and +++ are listed, and “%++&+++” is percentage of plant having medium and high glyphosate resistance to the total number of plants observed.

[3] = 1X dosage (1060 g/hectare glyphosate), recorded on 10th day
[4] = 2X dosage (2120 g/hectare) sprayed to plants surviving 1X, recorded 10 days later
[5] = 5X dosage (5300 g/hectare) sprayed to plants surviving 2X, recorded 10 days later
[6] = 20X dosage (21200 g/hectare) sprayed to plants surviving 5X, recorded 10 days later
[7] = culture media containing 20 mM glyphosate

Molecule	% ++&+++ (percentage of plant having medium and high glyphosate resistance to the total number of plants observed) [2, 3]	number of plants with resistance + (low glyphosate resistance) [2, 3]	number of plants with resistance ++ (medium glyphosate resistance) [2, 3]	number of plants with resistance +++ (high glyphosate resistance) [2, 3]	number of plants with resistance − (no glyphosate resistance) [2, 3]	% ++&+++ (percentage of plant having medium and high glyphosate resistance to the total number of plants observed) [2, 4]	number of plants with resistance + (low glyphosate resistance) [2, 4]	number of plants with resistance ++ (medium glyphosate resistance) [2, 4]	number of plants with resistance +++ (high glyphosate resistance) [2, 4]	number of plants with resistance − (no glyphosate resistance) [2, 4]	% ++&+++ (percentage of plant having medium and high glyphosate resistance to the total number of plants observed) [2, 5]	number of plants with resistance + (low glyphosate resistance) [2, 5]	number of plants with resistance ++ (medium glyphosate resistance) [2, 5]	number of plants with resistance +++ (high glyphosate resistance) [2, 5]	number of plants with resistance − (no glyphosate resistance) [2, 5]	% ++&+++ (percentage of plant having medium and high glyphosate resistance to the total number of plants observed) [2, 6]	number of plants with resistance + (low glyphosate resistance) [2, 6]	number of plants with resistance ++ (medium glyphosate resistance) [2, 6]	number of plants with resistance +++ (high glyphosate resistance) [2, 6]	number of plants with resistance − (no glyphosate resistance) [2, 6]	other results
B1	5.4%	6	2	0	29	0.0%	4	0	0	33	0.0%	0	0	0	37	0.0%	0	0	0	37	growth of transformed E. coli ([1]; culture media containing 1 mM glyphosate): obviously superior to the control group (G0); glyphosate resistance / survival of transformed rice seedlings (in words) [2]: some of the rice seedlings transformed by G1 still survived; glyphosate resistance of transformed rice seedlings (in words) [2]: obviously superior to that of G0
B2	45.2%	1	9	5	16	19.4%	5	6	0	20	0.0%	10	0	0	21	0.0%	3	0	0	28	growth of transformed E. coli [1, 7]: superior to that of Experiment Group 2 (G2); glyphosate resistance of transformed rice seedlings (in words) [2]: certain resistance to glyphosate
B3	47.1%	6	5	3	3	0.0%	0	0	0	17	0.0%	0	0	0	17	0.0%	0	0	0	17	growth of transformed E. coli [1, 7]: could grow; glyphosate resistance / survival of transformed rice seedlings (in words) [2]: all rice seedlings containing the soybean EPSPS mutant G2 died; glyphosate resistance of transformed rice seedlings (in words) [2]: certain resistance to glyphosate
